Values quoted from earlier work in article PMC7570734.
Where two headings read alike, the source gives them in different places.

Experiments:
[1] = molecular target: alpha-factor (Saccharomyces cerevisiae) (UniProt P01149)
[2] = molecular target: alpha-factor (Saccharomyces cerevisiae) (UniProt P01149); remark: listed apart in the source

Kd [1]: 17 nM | Kd [2]: > 150 nM
Substance: Ste2p (from UniProt D6VTK4)
